The record followed here is the supplement of paper PMC7125110.

± gives the standard error. Variants at the floor of the assay were thinned out.

The labels stand for the following.
B1: glmS ribozyme (parent)
chain: AUAAAAGCGCCAGAACUACAGAAAUGUAGUUGACGAGGAGGAGGUUUAUCGAAUUUUCGGCGGAUGCCUCCAAA

In one data set the parent is B1. The data set can be described thus: self-cleavage kobs at 2500 uM GlcN6P; higher = faster cleavage; RNA array. Conditions: with glucosamine-6-phosphate. Summed up:
(§1)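 Over ~14 h at 37 °C, tiles were imaged as glucosamine-6-phosphate (40 μM to 10 mM) in HEPES/KCl/Mg(OAc)2 buffer flowed across sequenced MiSeq chips. The chips carried barcoded ribozyme variants transcribed in situ by E. coli RNA polymerase and tracked with a hybridised Cy3 probe. After normalisation to baseline and to non-cleaving reference variants, one- or two-exponential decay fits of per-tile medians gave kobs. kcat and KM followed from weighted Michaelis–Menten fits across concentrations.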
Turning to AUAAAAGCGCCAGAAUUACAGAAAUGUAGUUGACGAGGAGGAGGUUUAUCGAAUUUACCGCGGAUGCCUCCAAA [C16U U57A G59C], the “self-cleavage kobs at 2500 uM GlcN6P” value is under 1e-05 s⁻¹.

For the variant AUAAAAGCGCCAGAAGUACAGAAAUGUAGUUGACGAGGAGGAGGUUUAGCGAAUAUUCGGCGGAUGCCUCCAAA [C16G U49G U55A], the “self-cleavage kobs at 2500 uM GlcN6P” value worked out at 5.61e-05 ± 2.1e-05 s⁻¹.

Regarding AUAAAAGCGCCGGAACUACAGAAAUGUAGUUGACGAGGAGGACGCUUAUCGAAUUUUCGGGGGAUGCCUCCAAA [A12G G43C U45C C61G], the “self-cleavage kobs at 2500 uM GlcN6P” value is under 1e-05 s⁻¹.

Regarding AUAAAAGCGCCAGAACUACAGAAAUGUAGUUGAAAAGGAGGAGGUUUAUCGAAUUUUCGGCGGAUGGAUCAAAA [C34A G35A C67G C68A C71A], the “self-cleavage kobs at 2500 uM GlcN6P” value is 0.000155 ± 6.4e-05 s⁻¹.

AUAAAGGCGCCAGAACUACAGAAAUGUAGUUGACGAGGAGGACGUUUAUCGAAUUUUGGGCGGAUGCCUCCAAA [A6G G43C C58G]: the “self-cleavage kobs at 2500 uM GlcN6P” value was under 1e-05 s⁻¹.

Turning to AUAAAAGCGCCAGAACUACAGAAAUGUAGUUGACGAGGAGGAGGUGUAUCGAAUUUUCGGUGGGUGCCUCCAAA [U46G C61U A64G], the “self-cleavage kobs at 2500 uM GlcN6P” value is under 1e-05 s⁻¹.

Turning to AUAAAAGCGUCAGAACUACAGAAAUGUAGUGGACGAGGAGGAGGUUUAACGAAUUUUCGGCUGAUGCCUCCAAA [C10U U31G U49A G62U], the “self-cleavage kobs at 2500 uM GlcN6P” value was under 1e-05 s⁻¹.

Regarding AUAAAAGCGCCACAACUACAGAAAUGUAGUGGACGGGGAGGAGGUAUAUCGAAUUUUCGGCGGAUGCCUGCAAA [G13C U31G A36G U46A C70G], the “self-cleavage kobs at 2500 uM GlcN6P” value was under 1e-05 s⁻¹.

AUAAAAACGCCAGAACUACAGAAAUGUAGAUGACGAGGAGGAGGUUUAUCGAAUUUUCGCCGGAUGCCUCCAAA [G7A U30A G60C]: the “self-cleavage kobs at 2500 uM GlcN6P” value was under 1e-05 s⁻¹.

In the case of AUAAAAGCGCCUGAACUACAGAAAUGUAGUUGACGAGGAGGAGGUUUAUCGAAUUUUCGGCCGAUGCCUGCAAA [A12U G62C C70G], the “self-cleavage kobs at 2500 uM GlcN6P” value is under 1e-05 s⁻¹.

Consider AUAAAAGCGCCAGGACUACAGAAAUGUAGUUGACGAGGUGGAGGUUUAUCGAAUUUUCGGCGGAUGCCUCGAAA [A14G A39U C71G], for which the “self-cleavage kobs at 2500 uM GlcN6P” value came out at 0.00129 ± 0.00041 s⁻¹.

With AUAAAAGCUCCAGACCUACAGAAAUGUAGUUGACGAGGAGGAGGUUUAUCGAAUUUUCGGCGGAUGCUUCCAAA [G9U A15C C68U], the “self-cleavage kobs at 2500 uM GlcN6P” value is under 1e-05 s⁻¹.

In the case of AUAAAAGCGCCAGAACUACAGAAAUGUAGUUGACUUGGAGGAGGUUUAUCGAUUUUUCGGCGCAUGCCUCCAAA [G35U A36U A53U G63C], the “self-cleavage kobs at 2500 uM GlcN6P” value was under 1e-05 s⁻¹.

On to AUAAAAGCGCCAGAACUACAGAAAUGUAGUUGACCAGGAGGAGGUUGAUGGAAUUUUCGGCGGAUACCUCCAAA [G35C U47G C50G G66A], for which the “self-cleavage kobs at 2500 uM GlcN6P” value was 7.72e-05 ± 2.7e-05 s⁻¹.

With AUAAAAGCGCCUGAACUACAGAAAUGUAGUUGACGAGGAGGAGGUUUAUCGAAUUUUCGGCGGAGGCCUACAAA [A12U U65G C70A], the “self-cleavage kobs at 2500 uM GlcN6P” value was found to be 6.44e-05 ± 2.6e-05 s⁻¹.

As for AUAAAAGCGCCAGAACUACAGAAAUGUAGUUGACGUGGAGGAGGUUUAUCGAAUCUUCGGCGGAUGCCUGCAAA [A36U U55C C70G], the “self-cleavage kobs at 2500 uM GlcN6P” value is under 1e-05 s⁻¹.

Turning to AUAAAAGCGCCAGAACUACAGAAAUGUAGUUGACGAGGAGGAGAUUUAUCGUAUUUUCGUCGGAUGCCUCCAAA [G44A A52U G60U], the “self-cleavage kobs at 2500 uM GlcN6P” value was under 1e-05 s⁻¹.

Regarding AUAAAAGCGCCAGAACUACAGAAAUGUAGUUGACGGGGAGGAGGUUUAUCGCAUUUUCGGCGGAUGCUUCCAAA [A36G A52C C68U], the “self-cleavage kobs at 2500 uM GlcN6P” value is under 1e-05 s⁻¹.

For the variant AUAAAUGCGCCAGAACUACAGAAAUGUAGUUGACGAGGAGGAGGUUUAUCGGAUUUUCGGCGGAUGCCCCCAAA [A6U A52G U69C], the “self-cleavage kobs at 2500 uM GlcN6P” value is 5.25e-05 ± 2.2e-05 s⁻¹.

Consider AUAAAAGCGCCAGAAUUACAGAAAUGUAGUUGACGAGGAAGAGGUUUAUCGAAUUUUCGGCGGAUGCCCCCAAA [C16U G40A U69C], for which the “self-cleavage kobs at 2500 uM GlcN6P” value turned out to be 3.52e-05 ± 1.7e-05 s⁻¹.

For the variant AUAAAAGCGCCAGAUUUACAGAAAUGUAGUUGACGAGGAGGAGGUUUAACGAAUUUUCGGCGGAUGCCUGCAAA [A15U C16U U49A C70G], the “self-cleavage kobs at 2500 uM GlcN6P” value turned out to be 4.48e-05 ± 1.7e-05 s⁻¹.

In the case of AUAAAAGCGCGAGAACUACAGAAAUGUAGUUGACGAGGAAGAGGUUUAUCGAUUUUUCGGCGGAUGCCUCCAAA [C11G G40A A53U], the “self-cleavage kobs at 2500 uM GlcN6P” value was under 1e-05 s⁻¹.

In the case of AUAAAAGCGCUAGAACUACAGAAAUGUAGUUGACGAGGAGGAGGUUUAUCGAAAUUUCGGCGGAUGCCUGCAAA [C11U U54A C70G], the “self-cleavage kobs at 2500 uM GlcN6P” value turned out to be 9.38e-05 ± 2.4e-05 s⁻¹.

Consider AUAAAAGCGCCAGAACUACAGAAAUGUAGUUGACGAGGAGGAGGUUUAUCUAAUUUUCCGCGGAUUCCUCCAAA [G51U G59C G66U], for which the “self-cleavage kobs at 2500 uM GlcN6P” value is under 1e-05 s⁻¹.

On to AUAAAAGAGUCAGAACUACAGAAAUGUAGUUGACAAGAAGGAGGUUUAUCGAAUUUUCGGCGGAUGCUUCCAAA [C8A C10U G35A G38A C68U], for which the “self-cleavage kobs at 2500 uM GlcN6P” value is 4.94e-05 ± 1.7e-05 s⁻¹.

For AUAAAAGCGCCAGAACUACAGAAAUGUAGUUGACGAGGAGGAGGUUUAUCGGAUUUUCGGCGGGUGCUUCCAAA [A52G A64G C68U], the “self-cleavage kobs at 2500 uM GlcN6P” value was 6.71e-05 ± 2.2e-05 s⁻¹.

Take AUAAAAGCCCAAGAACUACAGAAAUGUAGUUGACGAGGAGGAGUUUUAUCGAAUUUUCGGCGAAUGUCUCCAAA [G9C C11A G44U G63A C67U]: the “self-cleavage kobs at 2500 uM GlcN6P” value was under 1e-05 s⁻¹.

As for AUAAAAGCGUUAGAACUACAGAAAUGUAGUUGACGCGGAGGUGGUUUCUCGAAUUUUCGGCGGAUGCCUCCAAA [C10U C11U A36C A42U A48C], the “self-cleavage kobs at 2500 uM GlcN6P” value was under 1e-05 s⁻¹.

In the case of AUAAAAGCGGCAGAACUACAGAAAUGUAGUUGGCGAGGAGGAGGUUUAUCUAAUUUUCGGCGGAUGCCUCCAAA [C10G A33G G51U], the “self-cleavage kobs at 2500 uM GlcN6P” value was under 1e-05 s⁻¹.

On to AUAAAAGCGACAGAACUACAGAAAUGUAGUUGACGAGGAGGAGGUUCAUCGAAUUUUCGGCUGAUGCCUCCAAA [C10A U47C G62U], for which the “self-cleavage kobs at 2500 uM GlcN6P” value was under 1e-05 s⁻¹.

Consider AUAAAAGCGCCAGAACUACAGAAAUGUAGUUGACGAGGAGAAGGUUUAUCGAAUUUUCGGAAGAUGCCUCCAAA [G41A C61A G62A], for which the “self-cleavage kobs at 2500 uM GlcN6P” value was under 1e-05 s⁻¹.

A further data set covers variants of B1. The data set can be described thus: self-cleavage kobs at 10000 uM GlcN6P; higher = faster cleavage; RNA array. Conditions: with glucosamine-6-phosphate. Summed up: as §1
With AUAAAAGCGCCGGAACUACAGAAAUGUAGUUGACGAGGAGGACGCUUAUCGAAUUUUCGGGGGAUGCCUCCAAA [A12G G43C U45C C61G], the “self-cleavage kobs at 10000 uM GlcN6P” value is under 1e-05 s⁻¹.

As for AUAAAAACGCCAGAACUACAGAAAUGUAGAUGACGAGGAGGAGGUUUAUCGAAUUUUCGCCGGAUGCCUCCAAA [G7A U30A G60C], the “self-cleavage kobs at 10000 uM GlcN6P” value is under 1e-05 s⁻¹.

On to AUAAAAGCUCCAGACCUACAGAAAUGUAGUUGACGAGGAGGAGGUUUAUCGAAUUUUCGGCGGAUGCUUCCAAA [G9U A15C C68U], for which the “self-cleavage kobs at 10000 uM GlcN6P” value is under 1e-05 s⁻¹.

As to AUAAAAGCGCCUGAACUACAGAAAUGUAGUUGACGAGGAGGAGGUUUAUCGAAUUUUCGGCGGAGGCCUACAAA [A12U U65G C70A], the “self-cleavage kobs at 10000 uM GlcN6P” value stood at 0.000122 ± 2.2e-05 s⁻¹.

As to AUAAAAGCGCCAGAACUACAGAAAUGUAGUUGACGAGGAGGAGGUUUAUCUAAUUUUCCGCGGAUUCCUCCAAA [G51U G59C G66U], the “self-cleavage kobs at 10000 uM GlcN6P” value is under 1e-05 s⁻¹.

AUAAAAGCGGCAGAACUACAGAAAUGUAGUUGGCGAGGAGGAGGUUUAUCUAAUUUUCGGCGGAUGCCUCCAAA [C10G A33G G51U]: the “self-cleavage kobs at 10000 uM GlcN6P” value was under 1e-05 s⁻¹.

Take AUAAAAGCGACAGAACUACAGAAAUGUAGUUGACGAGGAGGAGGUUCAUCGAAUUUUCGGCUGAUGCCUCCAAA [C10A U47C G62U]: the “self-cleavage kobs at 10000 uM GlcN6P” value was under 1e-05 s⁻¹.
